Results taken from publication PMC8713982, “Structure and RNA template requirements of Arabidopsis RNA-DEPENDENT RNA POLYMERASE 2”.

Molecular target: T1, TF-RDR2-RRM (Arabidopsis thaliana, UniProt O82504 1-100)
T1 sequence: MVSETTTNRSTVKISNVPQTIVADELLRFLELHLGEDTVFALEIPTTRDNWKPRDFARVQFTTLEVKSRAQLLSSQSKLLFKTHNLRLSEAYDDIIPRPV
Assay: EMSA; protein 1, 3, 9 uM; RNA 2 uM; 2 mM Mg2+; 25 mM Hepes-KOH pH 7.6, 50 mM NaCl, 2 mM MgCl2, RNase inhibitor, 30 min room temperature; 6% native PAGE
Settings: protein: recombinant; tags: N-terminal trigger factor (TF) fusion, pCold-TF; label: 5' Alexa647; single strand

UCCGUCCGUCUGCUGUGGGUCUCCUUUCUCCUUCUUC (ssRNA) [37-nt ssRNA]
binding result: binds
